The target of this test is Photosystem II core complex from solubilized grana (SG-PSII) (Nicotiana tabacum (endogenous in thylakoids) | Nicotiana tabacum) (UniProt P69556). Put plainly: SEC + native gel or EMSA; Ni-NTA-purified PSII pools on Superose 6 in 40 mM MES-NaOH pH 6.5, 20 mM NaCl, 5 mM MgCl2, 1 mM CaCl2, 10 mM NaHCO3, 0.01% β-DDM; pools and fractions checked by BN-PAGE (3-12% gradient, 4°C); C2 also seen by negative-stain TEM. Background: In EMSA bound probe runs differently from free probe, usually more slowly.

The stoichiometry N is the number of molecules, sites or subunits per partner or assembly. “Photosystem II core complex from solubilized grana (SG-PSII) (from UniProt P69556 1-344; P06411 1-508; P06413 15-473; P69686 1-353; P69384 1-83; P06415 1-73; P60139 1-38; Q40519 38-136)”: the stoichiometry N is 2.

Source of the values: paper PMC4674563.
